Experimental data from the supplement of paper PMC7125110.
± gives the standard error. For some assays here: Variants at the floor of the assay were thinned out.

B1: glmS ribozyme (parent)
chain: AUAAAAGCGCCAGAACUACAGAAAUGUAGUUGACGAGGAGGAGGUUUAUCGAAUUUUCGGCGGAUGCCUCCAAA

Tests used:
Details in all cases: with glucosamine-6-phosphate
[1] = variants of: B1; assay: kcat; higher = faster cleavage; RNA array
Method in brief: (§1)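 Tiles of sequenced MiSeq chips were imaged over ~14 h at 37 °C. On them, barcoded ribozyme variants had been transcribed in situ by E. coli RNA polymerase and were tracked via a hybridised Cy3 probe while glucosamine-6-phosphate (40 μM to 10 mM) in HEPES/KCl/Mg(OAc)2 buffer flowed in. Per-tile medians, normalised to baseline and to non-cleaving reference variants, were fit to one- or two-exponential decays for kobs, and weighted Michaelis–Menten fits gave kcat and KM.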

[2] = variants of: B1; assay: KM; higher = weaker cofactor use; RNA array
Method in brief: as §1

[3] = variants of: B1; assay: self-cleavage kobs at 40 uM GlcN6P; higher = faster cleavage; RNA array
Method in brief: as §1

[4] = variants of: B1; assay: self-cleavage kobs at 640 uM GlcN6P; higher = faster cleavage; RNA array
Method in brief: as §1

[5] = variants of: B1; assay: self-cleavage kobs at 2500 uM GlcN6P; higher = faster cleavage; RNA array
Method in brief: as §1

[6] = variants of: B1; assay: self-cleavage kobs at 10000 uM GlcN6P; higher = faster cleavage; RNA array
Method in brief: as §1

[7] = variants of: B1; assay: self-cleavage kobs at 160 uM GlcN6P; higher = faster cleavage; RNA array
Method in brief: as §1

| Variant | kcat [1] [s⁻¹] | KM [2] [µM] | self-cleavage kobs at 40 uM GlcN6P [3] [s⁻¹] | self-cleavage kobs at 640 uM GlcN6P [4] [s⁻¹] | self-cleavage kobs at 2500 uM GlcN6P [5] [s⁻¹] | self-cleavage kobs at 10000 uM GlcN6P [6] [s⁻¹] | self-cleavage kobs at 160 uM GlcN6P [7] [s⁻¹] |
| --- | --- | --- | --- | --- | --- | --- | --- |
| AUAAAAGCGCCAGAUCUACAGAAAUGUAGUUGACGAGGAGGAGGUUUAUCGUAUUUUCGGCGGAUGCCUCCAAA [A15U A52U] | 0.000143 ± 1.2e-05 | 1610 ± 370 | < 1e-05 | 3.6e-05 ± 1e-05 | 9.15e-05 ± 9.9e-06 | 0.000119 ± 1.5e-05 | – |
| AUAAAAGCGCCAGAUCUACAGAAAUGUAGUUGACGAGGAAGAGGUUUAUCGAAUUUUCGGCGGAUGCCUCCAAA [A15U G40A] | 0.000675 ± 9.5e-05 | 912 ± 230 | 4.43e-05 ± 1.2e-05 | 0.000282 ± 4.7e-05 | 0.000515 ± 0.0001 | 0.000611 ± 0.0001 | 8.75e-05 ± 1.8e-05 |
| AUAAAAGCGCCAGAUCUACAGAAAUGUAGUUGACGAGGACGAGGUUUAUCGAAUUUUCGGCGGAUGCCUCCAAA [A15U G40C] | 0.000282 ± 2.6e-05 | 1070 ± 230 | – | 0.00011 ± 1.4e-05 | 0.000162 ± 3.3e-05 | 0.000269 ± 3e-05 | 3.7e-05 ± 1.5e-05 |
| AUAAAAGCGCCAGAUCUACAGAAAUGUAGUUGACGAGGCGGAGGUUUAUCGAAUUUUCGGCGGAUGCCUCCAAA [A15U A39C] | 0.00112 ± 0.00025 | 1960 ± 980 | 3.4e-05 ± 6.3e-06 | 0.000287 ± 3.8e-05 | 0.000499 ± 5.7e-05 | 0.00102 ± 7.3e-05 | – |
| AUAAAAGCGCCAGAUCUACAGAAAUGUAGUUGACGAGGAGGAGGUUUAUCGAGUUUUCGGCGGAUGCCUCCAAA [A15U A53G] | 0.00765 ± 0.0013 | 1990 ± 520 | 0.00019 ± 1.8e-05 | 0.0015 ± 0.0002 | 0.00373 ± 0.00055 | 0.00681 ± 0.00053 | 0.000531 ± 6.8e-05 |
| AUAAAAGCGCCAGAUCUACAGAAAUGUACUUGACGAGGAGGAGGUUUAUCGAAUUUUCGGCGGAUGCCUCCAAA [A15U G29C] | 0.00199 ± 0.00051 | 2340 ± 910 | 4.56e-05 ± 9.9e-06 | 0.000432 ± 7.6e-05 | 0.000809 ± 0.00016 | 0.00191 ± 0.0003 | 0.000116 ± 3.3e-05 |
| AUAAAAGCGCCAGAUCUACAGAAAUGUAGUUGACGAGGAGAAGGUUUAUCGAAUUUUCGGCGGAUGCCUCCAAA [A15U G41A] | 0.000124 ± 3.5e-05 | – | – | 6.09e-05 ± 1.6e-05 | 0.000147 ± 2.5e-05 | 8.75e-05 ± 2.5e-05 | – |
| AUAAAAGCGCCAGAUCUACAGAAAUGUAGUUGACGAGGAGGAGGUUUAUCGAAUUUUCGGCGGAUGCCUGCAAA [A15U C70G] | 7.6e-05 ± 6.8e-06 | 175 ± 85 | – | 5.16e-05 ± 7.6e-06 | 7.05e-05 ± 8.4e-06 | 8.19e-05 ± 9.8e-06 | 4.66e-05 ± 1.1e-05 |
| AUAAAAGCGCCAGAUCUACAGAAAUGUAGUUGACGAGGAGGAGGUUUAUCGAAUUUUCGGAGGAUGCCUCCAAA [A15U C61A] | < 1e-05 | 829 ± 70 | < 1e-05 | – | – | – | – |
| AUAAAAGCGCCAGAUCUACAGAAAUGUAGUUGACGAGAAGGAGGUUUAUCGAAUUUUCGGCGGAUGAUUCCAAA [A15U G38A C67A C68U] | 2.38e-05 ± 7.1e-06 | – | – | – | – | – | – |
| AUAAAAGCGCCAGAUCUACAGAAAUGUAGUUGACGAGGAGGAGUUUGAUCGAAUUUUCGGCGGAUGGCUCCAAA [A15U G44U U47G C67G] | 0.000544 ± 0.00017 | – | – | 0.000193 ± 3.9e-05 | 0.000563 ± 9.9e-05 | 0.000418 ± 9.9e-05 | – |
| AUAAAAGCGCCAGAUCUACAGAAAUGUAGUUAACGAGGAGGAGGUUUAUCGAAUUUUCGGCGGAUGCCUCCAAA [A15U G32A] | 0.00116 ± 0.00015 | 4440 ± 850 | – | 0.000153 ± 2.9e-05 | 0.000388 ± 9.4e-05 | 0.00082 ± 0.00016 | – |
| AUAAAAGCGCCAGAUCUACAGAAAUGUAGUUGACGAGGAGGAGGUUUAUAGAAUUUUCGGCGGAUGCCUCCAAA [A15U C50A] | 1.29e-05 ± 3.8e-06 | – | – | – | – | – | – |
| AUAAAAGCGCCAGAUCUACAGAAAUGUAGUUGACGAGGAGGAGGUUUAUCGAAUUUUCGGCGGGUGCCUCCAAA [A15U A64G] | 0.00706 ± 0.00091 | 1990 ± 370 | 0.000142 ± 2.5e-05 | 0.00182 ± 0.00029 | 0.00336 ± 0.00058 | 0.0066 ± 0.001 | 0.00053 ± 0.0001 |
| AUAAAAGCGCCAGAUCUACAGAAAUGUAGUUGACGAGGAGGAGGUUUAUCGAAUUUUCGGCGGAUGCCUCAAAA [A15U C71A] | 0.000688 ± 4.8e-05 | 1050 ± 120 | 3.22e-05 ± 8.9e-06 | 0.000278 ± 3.4e-05 | 0.000497 ± 6.4e-05 | 0.000605 ± 7e-05 | 8.62e-05 ± 8.8e-06 |
